Measurements reported in the supplement of paper PMC10724198.
± gives the standard deviation of the averaged measurements.

system: Saccharomyces cerevisiae; experiment: protein stability index of tFT-peptide fusion (C-terminal peptide) (PSI (0-1 scale)); higher = more stable (slower turnover); conditions: genetic background: wild type; temperature: 37 C
Method: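 MPS profiling in S. cerevisiae of the tFT-X12 degron library: putative degron peptides plus stable controls, 12 aa, fused to the C-terminus of a sfGFP-mCherry timer. Cells are FACS-sorted into 8 mCherry/sfGFP bins and deep-sequenced. PSI runs from 0 (unstable) to 1 (stable). Backgrounds are wild type, das1Δ and doa10Δ at 30 °C, and wild type, das1Δ, cdc34-1 and cdc53-1 at 37 °C; 2-3 technical replicates each.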

Row | Sequence | protein stability index
1 | YLDRFIFIYNIF | 0.367 ± 0.023
2 | YLGLSAVAILWM | 0.529 ± 0.011
3 | YLVFSLCSYRFL | 0.549 ± 0.016
4 | YNRKQEAAQKAN | 0.606 ± 0.011
5 | YNTRLCTFSCML | 0.772 ± 0.011
6 | YPCRLFVRSLLA | 0.375 ± 0.019
7 | YRGFFIGKLMLV | 0.216 ± 0.081
8 | YRKKIKNIWLRW | 0.535 ± 0.0073
9 | YRLTIVWFFLAL | 0.513 ± 0.011
10 | YSVERCLFVSVA | 0.443 ± 0.018
11 | YVASSWRHCFII | 0.269 ± 0.023
12 | YVLLSRVSVFSA | 0.501 ± 0.028

system: Saccharomyces cerevisiae; experiment: as above; conditions: genetic background: wild type; temperature: 30 C

Row | Sequence | protein stability index
13 | WPRSFSIILLSR | 0.285 ± 0.027
14 | WRMRCGLIIGLV | 0.183 ± 0.032
15 | WRVFRPSLRLFA | 0.393 ± 0.051
16 | WVFMVILLVFLV | 0.3041 ± 0.0026
17 | YAFYLFSRILAA | 0.2795 ± 0.00053
18 | YALVQHRWVYYF | 0.119 ± 0.031
19 | YCFLSWVLMCCF | 0.406 ± 0.022
20 | YFNGLLPLVLVF | 0.0927 ± 0.049
21 | YHFSLFFPLSLP | 0.482 ± 0.0063
22 | YLAGPLARLRKF | 0.751 ± 0.037
23 | YLDRFIFIYNIF | 0.26 ± 0.025
24 | YLGLSAVAILWM | 0.4784 ± 0.0037
25 | YLVFSLCSYRFL | 0.457 ± 0.033
26 | YNRKQEAAQKAN | 0.486 ± 0.14
27 | YNTRLCTFSCML | 0.755 ± 0.0089
28 | YPCRLFVRSLLA | 0.32 ± 0.051
29 | YRGFFIGKLMLV | 0.201 ± 0.013
30 | YRKKIKNIWLRW | 0.473 ± 0.041
31 | YRLTIVWFFLAL | 0.427 ± 0.055
32 | YSVERCLFVSVA | 0.414 ± 0.034
33 | YVASSWRHCFII | 0.221 ± 0.039
34 | YVLLSRVSVFSA | 0.421 ± 0.035

system: Saccharomyces cerevisiae; experiment: as above; conditions: genetic background: das1 deletion; temperature: 30 C
Method: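 MPS profiling in S. cerevisiae of the yeast C-terminome library: the last 12 aa of each annotated ORF are fused to the C-terminus of a sfGFP-mCherry timer, after a GGGS linker. Cells are FACS-sorted into 8 mCherry/sfGFP bins and deep-sequenced. PSI runs from 0 (unstable) to 1 (stable); wild type and das1Δ backgrounds, two technical replicates each.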

Row | Sequence | protein stability index
35 | AAISFKEAARTD [HYP2 C-terminal 12 aa] | 0.725 ± 0.019
36 | AAMLTSENAREI [RRP45 C-terminal 12 aa] | 0.707 ± 0.01
37 | AARADRGANFRD [SPT16 C-terminal 12 aa] | 0.677 ± 0.022
38 | AAVKLSQAKSKL [FOX2 C-terminal 12 aa] | 0.823 ± 0.019
39 | ADDDIFVNGFLR [YHL002C-A C-terminal 12 aa] | 0.719 ± 0.02
40 | ADMTKEFERESS [GLN1 C-terminal 12 aa] | 0.724 ± 0.018
41 | AFKKAQAEKSKK [NOP12 C-terminal 12 aa] | 0.699 ± 0.054
42 | AGAAWFFVKLLG [CCC1 C-terminal 12 aa] | 0.67 ± 0.017
43 | AGHSNTLQVSTV [CDC19 C-terminal 12 aa] | 0.705 ± 0.0082
44 | AILREVQFEVFR [NTA1 C-terminal 12 aa] | 0.699 ± 0.019
45 | AIRRGLTKKNEK [GDE1 C-terminal 12 aa] | 0.72 ± 0.013
46 | AIYPVLSEFRKM [SPT15 C-terminal 12 aa] | 0.701 ± 0.0082
47 | AKEESSDSENET [CDC123 C-terminal 12 aa] | 0.6497 ± 0.004
48 | AKEWDLEDPKSM [TAF9 C-terminal 12 aa] | 0.7024 ± 0.0067
49 | AKSEDISCVLII [YPL238C C-terminal 12 aa] | 0.711 ± 0.025
50 | AKYALLEVLKVS [YOR102W C-terminal 12 aa] | 0.581 ± 0.0095
51 | AKYSKKKNNKNK [DEG1 C-terminal 12 aa] | 0.689 ± 0.043
52 | ALCICCTMDMLF [YBR016W C-terminal 12 aa] | 0.6355 ± 0.0054
53 | ALDAELDAYMKG [YRA2 C-terminal 12 aa] | 0.67911 ± 5.2e-05

Row | Sequence | protein stability index
54 | ALDAVDDAIILD [GET1 C-terminal 12 aa] | 0.716 ± 0.0098
55 | ALLDPSDTLNFM [RDR1 C-terminal 12 aa] | 0.697 ± 0.024
56 | ALNDIAKASYIY [CTK3 C-terminal 12 aa] | 0.677 ± 0.034
57 | ALNTYSSGFEIA [GID10 C-terminal 12 aa] | 0.661 ± 0.0013
58 | ALSADGIYTIAN [PAU5 C-terminal 12 aa] | 0.71 ± 0.0096
59 | ALVGIFVLAFFN [HPF1 C-terminal 12 aa] | 0.29 ± 0.043
60 | AMFNDIWKNANE [UPS3 C-terminal 12 aa] | 0.7263 ± 0.0062
61 | ANCNTADCLEDH [COT1 C-terminal 12 aa] | 0.6866 ± 0.0051
62 | ANLRAYFGPGFT [BUD6 C-terminal 12 aa] | 0.719 ± 0.017
63 | AQLLAYLMHKSN [LPL1 C-terminal 12 aa] | 0.714 ± 0.013
64 | ASFENETVKANV [RFC3 C-terminal 12 aa] | 0.706 ± 0.019
65 | ASKESSKEDVAN [MUM2 C-terminal 12 aa] | 0.69 ± 0.0096
66 | ASQAKNSIEDDV [GTR2 C-terminal 12 aa] | 0.721 ± 0.021
67 | ASREREKRRQSE [VAN1 C-terminal 12 aa] | 0.724 ± 0.0075
68 | ATAREWTKKYAV [UBC4 C-terminal 12 aa] | 0.702 ± 0.0071
69 | ATCGSSTYFARK [MCO8 C-terminal 12 aa] | 0.6938 ± 0.0026
70 | ATPQKRTGPARG [YER088C-A C-terminal 12 aa] | 0.68 ± 0.018
71 | ATSILLWYSNYS [CNM1 C-terminal 12 aa] | 0.739 ± 0.013
